Laboratory results: patent US5834290

T1: soybean trypsin inhibitor (SBTI), P01070
T1 chain: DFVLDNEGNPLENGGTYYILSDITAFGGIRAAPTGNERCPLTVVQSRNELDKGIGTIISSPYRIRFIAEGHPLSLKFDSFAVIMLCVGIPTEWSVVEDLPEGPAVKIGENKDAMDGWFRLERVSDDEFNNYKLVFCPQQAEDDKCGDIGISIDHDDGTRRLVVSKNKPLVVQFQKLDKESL


Columns and labels:
[1] = molecular target: T1, soybean trypsin inhibitor (SBTI), P01070; experiment: affinity chromatography of KCl-extracts of plantar corneocytes on covalently linked soybean trypsin inhibitor
[2] = molecular target: desmoglein I (DG I) (Homo sapiens (Human)) (UniProt Q02413)
Chain of desmoglein I (DG I) (Homo sapiens (Human)) (Q02413 50-1049 limits assumed): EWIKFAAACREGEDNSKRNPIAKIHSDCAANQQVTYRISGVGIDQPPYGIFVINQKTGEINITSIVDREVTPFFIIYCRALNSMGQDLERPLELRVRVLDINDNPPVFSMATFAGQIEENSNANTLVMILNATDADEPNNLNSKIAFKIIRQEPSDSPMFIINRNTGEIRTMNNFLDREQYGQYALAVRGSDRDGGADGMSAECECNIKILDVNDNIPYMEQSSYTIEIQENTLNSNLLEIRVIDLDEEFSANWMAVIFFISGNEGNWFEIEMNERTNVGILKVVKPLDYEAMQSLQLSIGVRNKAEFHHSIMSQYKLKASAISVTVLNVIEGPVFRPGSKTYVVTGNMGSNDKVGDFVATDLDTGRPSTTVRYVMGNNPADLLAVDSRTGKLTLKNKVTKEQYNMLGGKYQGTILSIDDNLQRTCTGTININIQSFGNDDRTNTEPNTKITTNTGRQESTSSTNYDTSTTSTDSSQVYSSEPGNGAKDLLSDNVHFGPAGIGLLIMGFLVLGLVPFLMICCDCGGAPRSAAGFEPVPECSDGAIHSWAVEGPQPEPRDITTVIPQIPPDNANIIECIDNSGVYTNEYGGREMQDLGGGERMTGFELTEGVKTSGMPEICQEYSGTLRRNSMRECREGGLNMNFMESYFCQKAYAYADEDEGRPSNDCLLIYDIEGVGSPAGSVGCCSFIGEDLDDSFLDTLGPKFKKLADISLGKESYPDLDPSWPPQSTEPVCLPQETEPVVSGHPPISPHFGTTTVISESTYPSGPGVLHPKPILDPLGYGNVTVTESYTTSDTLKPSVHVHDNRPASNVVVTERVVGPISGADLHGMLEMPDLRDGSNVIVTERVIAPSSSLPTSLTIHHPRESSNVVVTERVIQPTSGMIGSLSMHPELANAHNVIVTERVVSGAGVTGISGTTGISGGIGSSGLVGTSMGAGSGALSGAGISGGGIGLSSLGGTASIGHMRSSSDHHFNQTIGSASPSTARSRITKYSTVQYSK

levels of the desmosome marker protein desmoglein I after 24 hours at 37° C., DG I (arbitrary units/mg squames) (arbitrary units/mg squames) [2]	Binder	percent of the S-2586 hydrolyzing activity bound to the gel [1]
–	stratum corneum chymotryptic enzyme (SCCE), native, from human plantar stratum corneum (protein) IIDGAPCARGSHPWQVALLSGNQLHCGGVLVNERWVLTAAHCKMNEYTVHLGSDTLGDRRAQRIKASKSFRHPGYSTQTHVNDLMLVKLNSQARLSSMVKKVRLPSRCEPPGTTCTVSGWGTTTSPDVTFPSDLMCVDVKLISPQDCTKVYKDLLENSMLCAGIPDSKKNACNGDSGGPLVCRGTLQGLVSWGTFPCGQPNDPGVYTQVCKFTKWINDTMKKHR	Approximately 90% of the S-2586 hydrolyzing activity was bound to the gel
4060	recombinant SCCE, active (trypsin-activated recombinant SCCE of Example 10; rSCCE of Examples 12 and 13) (enzyme) IIDGAPCARGSHPWQVALLSGNQLHCGGVLVNERWVLTAAHCKMNEYTVHLGSDTLGDRRAQRIKASKSFRHPGYSTQTHVNDLMLVKLNSQARLSSMVKKVRLPSRCEPPGTTCTVSGWGTTTSPDVTFPSDLMCVDVKLISPQDCTKVYKDLLENSMLCAGIPDSKKNACNGDSGGPLVCRGTLQGLVSWGTFPCGQPNDPGVYTQVCKFTKWINDTMKKHR	–
